Test results from patent publication US20100310509A1 (published 2010).

B1: gp130 bound LIF (gp130:LIF) (other)
chain 1: ELLDPCGYISPESPVVQLHSNFTAVCVLKEKCMDYFHVNANYIVWKTNHFTIPKEQYTIINRTASSVTFTDIASLNIQLTCNILTFGQLEQNVYGITIISGLPPEKPKNLSCIVNEGKKMRCEWDGGRETHLETNFTLKSEWATHKFADCKAKRDTPTSCTVDYSTVYFVNIEVWVEAENALGKVTSDHINFDPVYKVKPNPPHNLSVINSEELSSILKLTWTNPSIKSVIILKYNIQYRTKDASTWSQIPPEDTASTRSSFTVQDLKPFTEYVFRIRCMKEDGKGYWSDWSEEASGITYEDRPSKAPSFWYKIDPSHTQGYRTVQLVWKTLPPFEANGKILDYEVTLTRWKSHLQNYTVNATKLTVNLTNDRYLATLTVRNLVGKSDAAVLTIPACDFQATHPVMDLKAFPKDNMLWVEWTTPRESVKKYILEWCVLSDKAPCITDWQQEDGTVHRTYLRGNLAESKCYLITVTPVYADGPGSPESIKAYLKQAPPSKGPTVRTKKVGKNEAVLEWDQLPVDVQNGFIRNYTIFYRTIIGNETAVNVDSSHTEYTLSSLTSDTLYMVRMAAYTDEGGKDGPEFTFTTPKFAQGEIE
chain 2: not shown
notes: Non-covalent complex formed on the plate: gp130 coated, then saturating cytokine; also called LIF with gp130
B2: soluble human LIFR (leukemia inhibitory factor receptor) (receptor, UniProt P42702 45-833, looked up)
chain: QKKGAPHDLKCVTNNLQVWNCSWKAPSGTGRGTDYEVCIENRSRSCYQLEKTSIKIPALSHGDYEITINSLHDFGSSTSKFTLNEQNVSLIPDTPEILNLSADFSTSTLYLKWNDRGSVFPHRSNVIWEIKVLRKESMELVKLVTHNTTLNGKDTLHHWSWASDMPLECAIHFVEIRCYIDNLHFSGLEEWSDWSPVKNISWIPDSQTKVFPQDKVILVGSDITFCCVSQEKVLSALIGHTNCPLIHLDGENVAIKIRNISVSASSGTNVVFTTEDNIFGTVIFAGYPPDTPQQLNCETHDLKEIICSWNPGRVTALVGPRATSYTLVESFSGKYVRLKRAEAPTNESYQLLFQMLPNQEIYNFTLNAHNPLGRSQSTILVNITEKVYPHTPTSFKVKDINSTAVKLSWHLPGNFAKINFLCEIEIKKSNSVQEQRNVTIKGVENSSYLVALDKLNPYTLYTFRIRCSTETFWKWSKWSNKKQHLTTEASPSKGPDTWREWSSDGKNLIIYWKPLPINEANGKILSYNVSCSSDEETQSLSEIPDPQHKAEIRLDKNDYIISVVAKNSVGSSPPSKIASMEIPNDDLKIEQVVGMGKGILLTWHYDPNMTCDYVIKWCNSSRSEPCLMDWRKVPSNSTETVIESDEFRPGIRYNFFLYGCRNQGYQLLRSMIGYIEELAPIVAPNFTVEDTSADSILVKWEDIPVEELRGFLRGYLFYFGKGERDTSKMRVLESGRSDIKVKNITDISQKTLRIADLQGKTSYHLVLRAYTDGGVGPEKSMYVVTKENS
notes: extracellular domain; Bought; also called soluble LIFR
B3: gp130 bound OSM-M1 (gp130:OSM-M1) (other, human)
chain 1: ELLDPCGYISPESPVVQLHSNFTAVCVLKEKCMDYFHVNANYIVWKTNHFTIPKEQYTIINRTASSVTFTDIASLNIQLTCNILTFGQLEQNVYGITIISGLPPEKPKNLSCIVNEGKKMRCEWDGGRETHLETNFTLKSEWATHKFADCKAKRDTPTSCTVDYSTVYFVNIEVWVEAENALGKVTSDHINFDPVYKVKPNPPHNLSVINSEELSSILKLTWTNPSIKSVIILKYNIQYRTKDASTWSQIPPEDTASTRSSFTVQDLKPFTEYVFRIRCMKEDGKGYWSDWSEEASGITYEDRPSKAPSFWYKIDPSHTQGYRTVQLVWKTLPPFEANGKILDYEVTLTRWKSHLQNYTVNATKLTVNLTNDRYLATLTVRNLVGKSDAAVLTIPACDFQATHPVMDLKAFPKDNMLWVEWTTPRESVKKYILEWCVLSDKAPCITDWQQEDGTVHRTYLRGNLAESKCYLITVTPVYADGPGSPESIKAYLKQAPPSKGPTVRTKKVGKNEAVLEWDQLPVDVQNGFIRNYTIFYRTIIGNETAVNVDSSHTEYTLSSLTSDTLYMVRMAAYTDEGGKDGPEFTFTTPKFAQGEIE
chain 2: AAIGSCSKEYRVLLGQLQKQTDLMQDTSRLLDPYIRIQGLDVPKLREHCRERPGAFPSEETLRGLGRRGFLQTLNATLGCVLHRLADLEQRLGAPSGLNIEDLEKLQMARPNILGLRNNIYCMAQLLDNSDTAEPTKAGAGASQPPTPTPASDAFQRKLEGCRFLHGYHRFMHSVGRVFSKWGESPN
notes: extracellular domain; Non-covalent complex formed on the plate: gp130 coated, then 200 nM OSM-M1; also called OSM-M1 with gp130; not shown: N-terminal FLAG tag
B4: gp130 bound OSM-M2 (gp130:OSM-M2) (other, human)
chain 1: ELLDPCGYISPESPVVQLHSNFTAVCVLKEKCMDYFHVNANYIVWKTNHFTIPKEQYTIINRTASSVTFTDIASLNIQLTCNILTFGQLEQNVYGITIISGLPPEKPKNLSCIVNEGKKMRCEWDGGRETHLETNFTLKSEWATHKFADCKAKRDTPTSCTVDYSTVYFVNIEVWVEAENALGKVTSDHINFDPVYKVKPNPPHNLSVINSEELSSILKLTWTNPSIKSVIILKYNIQYRTKDASTWSQIPPEDTASTRSSFTVQDLKPFTEYVFRIRCMKEDGKGYWSDWSEEASGITYEDRPSKAPSFWYKIDPSHTQGYRTVQLVWKTLPPFEANGKILDYEVTLTRWKSHLQNYTVNATKLTVNLTNDRYLATLTVRNLVGKSDAAVLTIPACDFQATHPVMDLKAFPKDNMLWVEWTTPRESVKKYILEWCVLSDKAPCITDWQQEDGTVHRTYLRGNLAESKCYLITVTPVYADGPGSPESIKAYLKQAPPSKGPTVRTKKVGKNEAVLEWDQLPVDVQNGFIRNYTIFYRTIIGNETAVNVDSSHTEYTLSSLTSDTLYMVRMAAYTDEGGKDGPEFTFTTPKFAQGEIE
chain 2: AAIGSCSKEYRVLLGQLQKQTDLMQDTSRLLDPYIRIQGLDVPKLREHCRERPGAFPSEETLRGLGRRGFLQTLNATLGCVLHRLADLEQRLGGGNIEDLEKLQMARPNILGLRNNIYCMAQLLDNSDTAEPTKAGAGASQPPTPTPASDAFQRKLEGCRFLHGYHRFMHSVGRVFSKWGESPN
notes: extracellular domain; Non-covalent complex formed on the plate: gp130 coated, then 200 nM OSM-M2; also called OSM-M2 with gp130; not shown: N-terminal FLAG tag

Columns and labels:
[1] = target: B2; assay: ELISA, apparent KD (KD,App), gp130 coated, saturating cytokine, soluble LIFR titrated (with gp130)
Procedure: (§1) FIG. 13 graphically depicts an ELISA analysis of soluble OSMR and soluble LIFR binding with LIF, OSM-WT, OSM-M1 and OSM-M2 or gp130 bound LIF (gp130:LIF), OSM-WT (gp130:OSM-WT), OSM-M1 (gp130:OSM-M1) and OSM-M2 (gp130:OSM-M2). Cytokines (LIF, OSM-WT, OSM-M1 or OSM-M2) immobilized on an ELISA plate in the absence (A,C) or presence (B,D) of gp130 were treated with various concentrations of soluble OSMR (A,B) or soluble LIFR (C,D). Equilibrium KD values were estimated using a non-linear curve fitting to the binding data using GraphPad Prism (Graph Pad Software. LaJolla, Calif.). In addition, see Table 3.
(§2) Enzyme-linked immunosorbent assay (ELISA): ELISA was used to evaluate the equilibrium binding strength of the interaction between the cytokines and their receptors. This technique has traditionally been used as a sensitive method to quantify the binding affinities between two interacting proteins. However, unlike in SPR, ELISA involves immobilization of the proteins on a flat plastic surface driven by hydrophobic and ionic interactions. This might cause some distortion in the 3 dimensional structure of immobilized protein which leads to inaccuracies in the estimation of dissociation constants. It is thus important to bear in mind that the values estimated using this technique are to be used only for comparison between species but not as true equilibrium binding constants. The results obtained using this technique will thus be presented as apparent equilibrium dissociation constants (K_{D,App}). For direct interaction studies, cytokines (LIF, OSM-WT, OSM-M1 or OSM-M2) were immobilized on the 96 well ELISA plate by incubating the wells with 200 μl of 5 nM cytokine solution in PBS, pH 7.4 overnight at 4° C. The wells were then blocked with blocking buffer (4% BSA in PBS) for 1 hour at room temperature. After washing with 250 μl of washing buffer (0.05% Tween-20 in PBS) 3 times, the cytokines were treated with a series of concentrations of soluble human LIFR (Catalog #249-LR-050/CF, R&D Systems, Minneapolis, Minn.) or OSMR (Catalog #4389-OR-050, R&D Systems, Minneapolis, Minn.) in 150 μl of blocking buffer for 2 hours.

[2] = target: T1, gp130 bound OSM-WT (gp130:OSM-WT) (human, UniProt P40189 23-619); assay: as above
T1 construct: extracellular domain; Non-covalent complex formed on the plate: gp130 coated, then 200 nM OSM-WT; also called OSM-WT with gp130; not shown: N-terminal FLAG tag
T1 sequence 1: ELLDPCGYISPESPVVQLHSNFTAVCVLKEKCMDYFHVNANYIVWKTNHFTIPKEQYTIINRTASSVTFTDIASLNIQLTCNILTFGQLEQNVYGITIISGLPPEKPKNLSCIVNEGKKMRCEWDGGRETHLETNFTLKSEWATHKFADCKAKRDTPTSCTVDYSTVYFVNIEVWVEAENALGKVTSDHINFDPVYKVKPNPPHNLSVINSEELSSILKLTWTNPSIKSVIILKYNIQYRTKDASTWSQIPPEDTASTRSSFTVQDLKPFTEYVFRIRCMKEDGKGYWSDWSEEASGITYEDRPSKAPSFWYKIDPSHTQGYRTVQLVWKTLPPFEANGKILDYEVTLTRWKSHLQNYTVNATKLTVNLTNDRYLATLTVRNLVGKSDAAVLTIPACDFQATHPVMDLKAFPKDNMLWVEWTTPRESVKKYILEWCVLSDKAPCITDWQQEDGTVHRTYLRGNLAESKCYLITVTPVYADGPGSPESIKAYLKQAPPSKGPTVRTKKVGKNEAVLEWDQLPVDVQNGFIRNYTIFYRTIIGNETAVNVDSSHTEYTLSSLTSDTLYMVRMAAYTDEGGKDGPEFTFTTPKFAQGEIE
T1 sequence 2: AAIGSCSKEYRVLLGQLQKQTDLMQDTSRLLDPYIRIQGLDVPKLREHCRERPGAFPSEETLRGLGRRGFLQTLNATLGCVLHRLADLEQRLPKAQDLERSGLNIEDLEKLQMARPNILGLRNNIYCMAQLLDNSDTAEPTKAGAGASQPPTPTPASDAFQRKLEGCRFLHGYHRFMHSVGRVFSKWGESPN
Procedure: as §1, §2

Kd [1] [nM]	Kd [2] [nM]	Binder
10.3	–	B1
–	70.3	B2
12.6	–	B3
9.13	–	B4
